± gives the standard deviation.
Experiment: collision cross section of modified peptide (TIMS, N2, iRT-aligned); higher = larger / more extended gas-phase ion
Procedure, shortened: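 Collision cross section was derived from the Mason-Schamp equation. Each value averages 1–3 technical replicates of the most abundant feature per charge state, measured on a timsTOF Pro/HT in dda-PASEF mode (nitrogen, ~2.4 mbar) after a 120-min nanoflow C18 gradient at 60 °C. Synthetic peptide pools (~100 fmol/µL in 2% acetonitrile/0.1% formic acid, iRT standard spiked 1:40) were identified with MaxQuant, and 1/K0 was calibrated with three reference ions and aligned run-wise to the median iRT peptide deviation.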

[1] = charge state: 2, modification: Methyl (R)
[2] = charge state: 3, modification: Methyl (R)
[3] = charge state: 2, modification: Malonyl
[4] = charge state: 3, modification: Malonyl
[5] = charge state: 2, modification: Citrullination (R)
[6] = charge state: 3, modification: Citrullination (R)
[7] = charge state: 2, modification: Butyryl
[8] = charge state: 2, modification: HexNAc (ST)
[9] = charge state: 3, modification: Biotin
[10] = charge state: 3, modification: Dimethyl (K)
[11] = charge state: 3, modification: Butyryl
[12] = charge state: 2, modification: Succinyl
[13] = charge state: 3, modification: Succinyl
[14] = charge state: 2, modification: Phospho (Y)
[15] = charge state: 2, modification: Methyl (K)
[16] = charge state: 3, modification: Methyl (K)
[17] = charge state: 2, modification: hydroxyisobutyryl
[18] = charge state: 3, modification: hydroxyisobutyryl
[19] = charge state: 2, modification: Biotin
[20] = charge state: 2, modification: Crotonyl
[21] = charge state: 2, modification: Dimethyl (K)
[22] = charge state: 2, modification: Trimethyl (K)
[23] = charge state: 3, modification: Trimethyl (K)
[24] = charge state: 3, modification: Phospho (Y)
[25] = charge state: 2, modification: Acetyl (K)
[26] = charge state: 3, modification: Acetyl (K)
[27] = charge state: 2, modification: Nitro (Y)
[28] = charge state: 2, modification: Propionyl
[29] = charge state: 3, modification: Formyl

Sequence: PGTPAGYGRGR [_PGTPAGYGR(Methyl (R))GR_]
- collision cross section [1]: 362.47 ± 6.7 Å²
- collision cross section [2]: 449.19 ± 8.3 Å²

Sequence: TEVLSPNSKVESK [_TEVLSPNSK(Malonyl)VESK_]
- collision cross section [3]: 400.58 ± 1.9 Å²
- collision cross section [4]: 444.22 ± 3.4 Å²

Sequence: GRGTGEAEEEYVGPR [_GR(Citrullination (R))GTGEAEEEYVGPR_]
- collision cross section [5]: 411.48 ± 0.42 Å²
- collision cross section [6]: 487 ± 5.6 Å²

Sequence: IVSGKDYNVTANSK [_IVSGK(Butyryl)DYNVTANSK_]
- collision cross section [7]: 419.09 ± 2.9 Å²

Sequence: AQVLAGGRGK [_AQVLAGGR(Citrullination (R))GK_]
- collision cross section [5]: 333.54 ± 0.75 Å²

Sequence: RFGGPVHHQAQR [_R(Methyl (R))FGGPVHHQAQR_]
- collision cross section [2]: 496.52 ± 2.2 Å²

Sequence: VLPSITTEILK [_VLPS(HexNAc (ST))ITTEILK_]
- collision cross section [8]: 396.57 Å²

Sequence: VGLQVVAVKAPGFGDNR [_VGLQVVAVK(GlyGly (K))APGFGDNR_]
- collision cross section (charge state: 2, modification: GlyGly (K)): 471.7 ± 1.6 Å²
- collision cross section (charge state: 3, modification: GlyGly (K)): 536.75 ± 1.1 Å²

Sequence: PANEKATDDYHYEK [_PANEK(Biotin)ATDDYHYEK_]
- collision cross section [9]: 529.25 ± 3.6 Å²

Sequence: PANEKATDDYHYEK [_PANEK(Dimethyl (K))ATDDYHYEK_]
- collision cross section [10]: 491.56 Å²

Sequence: DFDTALKHYDK [_DFDTALK(Butyryl)HYDK_]
- collision cross section [7]: 408.66 ± 0.23 Å²
- collision cross section [11]: 465.65 ± 2.9 Å²

Sequence: SPSDSGYSYETIGKTTK [_SPSDSGYSYETIGK(Succinyl)TTK_]
- collision cross section [12]: 453.06 ± 1.1 Å²
- collision cross section [13]: 530.11 ± 3 Å²

Sequence: TTGFYSGFSEVAEKR [_TTGFYSGFSEVAEK(Malonyl)R_]
- collision cross section [3]: 440.22 ± 1.2 Å²

Sequence: AGQKLIDVNHYAK [_AGQK(Dimethyl (K))LIDVNHYAK_]
- collision cross section [10]: 472.93 ± 1.2 Å²

Sequence: AQSYAQQLGR [_AQSY(Phospho (Y))AQQLGR_]
- collision cross section [14]: 354.7 ± 0.065 Å²

Sequence: DASTLQSQKAEGTGDAK [_DASTLQSQK(Methyl (K))AEGTGDAK_]
- collision cross section [15]: 440.39 ± 1.8 Å²
- collision cross section [16]: 487.49 ± 2.4 Å²

Sequence: KYEEIDNAPEER [_K(hydroxyisobutyryl)YEEIDNAPEER_]
- collision cross section [17]: 416.12 ± 0.31 Å²
- collision cross section [18]: 497.05 ± 3.9 Å²

Sequence: VQGGALEDSQLVAGVAFKK [_VQGGALEDSQLVAGVAFK(Dimethyl (K))K_]
- collision cross section [10]: 554.94 ± 0.79 Å²

Sequence: TEVLSPNSKVESK [_TEVLSPNSK(Biotin)VESK_]
- collision cross section [19]: 425.18 ± 3.5 Å²
- collision cross section [9]: 487.32 ± 1.7 Å²

Sequence: TEVLSPNSKVESK [_TEVLSPNSK(Crotonyl)VESK_]
- collision cross section [20]: 417.97 ± 0.81 Å²
- collision cross section (charge state: 3, modification: Crotonyl): 452.38 ± 1.3 Å²

Sequence: LQAAYAGDKADDIQK [_LQAAYAGDK(Dimethyl (K))ADDIQK_]
- collision cross section [21]: 436.04 ± 1.1 Å²
- collision cross section [10]: 470.88 ± 1.6 Å²

Sequence: SSGPGGQNVNKVNSK [_SSGPGGQNVNK(Crotonyl)VNSK_]
- collision cross section [20]: 407.39 ± 1.4 Å²

Sequence: VGVEVPDVNIEGPEGKLK [_VGVEVPDVNIEGPEGK(Malonyl)LK_]
- collision cross section [3]: 458.25 ± 0.64 Å²

Sequence: VGTASVLQPVKK [_VGTASVLQPVK(hydroxyisobutyryl)K_]
- collision cross section [17]: 388.32 ± 0.29 Å²
- collision cross section [18]: 413.48 ± 1.6 Å²

Sequence: SYVDTGGVSR [_SY(Phospho (Y))VDTGGVSR_]
- collision cross section [14]: 347.56 ± 0.066 Å²

Sequence: YEQEHAAIQDKLFQVAK [_YEQEHAAIQDK(Succinyl)LFQVAK_]
- collision cross section [13]: 518.31 ± 1.6 Å²

Sequence: LQLEIDQKK [_LQLEIDQK(hydroxyisobutyryl)K_]
- collision cross section [17]: 371.26 ± 0.27 Å²

Sequence: VTLEVGKVIQQGR [_VTLEVGK(Trimethyl (K))VIQQGR_]
- collision cross section [22]: 428.78 ± 1 Å²
- collision cross section [23]: 471.08 ± 1.8 Å²

Sequence: YEEIVKEVSTYIK [_YEEIVK(Malonyl)EVSTYIK_]
- collision cross section [3]: 438.59 ± 1.6 Å²

Sequence: VLDSGAPIKIPVGPETLGR [_VLDSGAPIK(Butyryl)IPVGPETLGR_]
- collision cross section [7]: 472.51 ± 0.49 Å²
- collision cross section [11]: 512.04 ± 1.8 Å²

Sequence: LSESHPDATEDLQR [_LS(HexNAc (ST))ESHPDATEDLQR_]
- collision cross section (charge state: 3, modification: HexNAc (ST)): 486.6 ± 0.17 Å²

Sequence: YVHADAPTNK [_Y(Phospho (Y))VHADAPTNK_]
- collision cross section [14]: 354.72 ± 0.065 Å²
- collision cross section [24]: 420.4 ± 1 Å²

Sequence: VYSLFLDESR [_VY(Phospho (Y))SLFLDESR_]
- collision cross section [14]: 376.54 ± 1.2 Å²

Sequence: LQDVSGQLSSSKK [_LQDVSGQLSSSK(Dimethyl (K))K_]
- collision cross section [21]: 407.51 ± 1.1 Å²
- collision cross section [10]: 466.01 ± 2.4 Å²

Sequence: GGPGSTLSFVGKR [_GGPGSTLSFVGK(Acetyl (K))R_]
- collision cross section [25]: 381.14 ± 0.21 Å²
- collision cross section [26]: 429.09 ± 1.1 Å²

Sequence: PRLPATGTFK [_PR(Methyl (R))LPATGTFK_]
- collision cross section [1]: 353.59 ± 0.84 Å²
- collision cross section [2]: 458.58 ± 3 Å²

Sequence: LTEKELAEAASK [_LTEK(Succinyl)ELAEAASK_]
- collision cross section [12]: 389.23 ± 1.1 Å²
- collision cross section [13]: 454.1 Å²

Sequence: TAIQAAGYPDK [_TAIQAAGY(Nitro (Y))PDK_]
- collision cross section [27]: 354.49 ± 0.55 Å²

Sequence: GGPGSTLSFVGKR [_GGPGSTLSFVGK(Propionyl)R_]
- collision cross section [28]: 384.23 ± 0.44 Å²

Sequence: AAGQPYEQHAK [_AAGQPY(Nitro (Y))EQHAK_]
- collision cross section [27]: 375.04 ± 1.1 Å²
- collision cross section (charge state: 3, modification: Nitro (Y)): 431.09 ± 1.1 Å²

Sequence: AGQKLIDVNHYAK [_AGQK(Malonyl)LIDVNHYAK_]
- collision cross section [3]: 433.55 ± 0.56 Å²
- collision cross section [4]: 477.49 ± 1.8 Å²

Sequence: LDLSSLAYSGK [_LDLSSLAY(Nitro (Y))SGK_]
- collision cross section [27]: 385.74 ± 0.17 Å²

Sequence: AYGELPEHAK [_AY(Phospho (Y))GELPEHAK_]
- collision cross section [14]: 362.96 ± 0.74 Å²
- collision cross section [24]: 450.05 Å²

Sequence: DYSSGFGGKYGVQADR [_DYSSGFGGK(Acetyl (K))YGVQADR_]
- collision cross section [25]: 430.77 ± 2.2 Å²

Sequence: GEVQVSDKER [_GEVQVSDK(Acetyl (K))ER_]
- collision cross section [25]: 356.44 ± 0.96 Å²

Sequence: DAEAAEATAEGALKAEK [_DAEAAEATAEGALK(Propionyl)AEK_]
- collision cross section [28]: 451.16 ± 23 Å²

Sequence: DDSFLGKLGGTLAR [_DDSFLGK(Trimethyl (K))LGGTLAR_]
- collision cross section [22]: 427.63 Å²
- collision cross section [23]: 472.67 ± 1.8 Å²

Sequence: AAINQKLIETGER [_AAINQK(Biotin)LIETGER_]
- collision cross section [19]: 426.96 ± 1.5 Å²
- collision cross section [9]: 497.24 Å²

Sequence: SSFAYKDQNENR [_SSFAYK(Succinyl)DQNENR_]
- collision cross section [12]: 400.73 ± 0.25 Å²
- collision cross section [13]: 453.96 Å²

Sequence: SKHLQEQLNELK [_SK(Malonyl)HLQEQLNELK_]
- collision cross section [3]: 415.64 Å²
- collision cross section [4]: 480.76 ± 0.91 Å²

Sequence: LDHLAEKFR [_LDHLAEK(Trimethyl (K))FR_]
- collision cross section [23]: 436.32 ± 0.025 Å²

Sequence: LVLPSQAQARLPSGEVVK [_LVLPSQAQAR(Citrullination (R))LPSGEVVK_]
- collision cross section [5]: 464.28 ± 0.94 Å²
- collision cross section [6]: 522.33 ± 4.3 Å²

Sequence: GSAPPGPVPEGSIR [_GS(HexNAc (ST))APPGPVPEGSIR_]
- collision cross section [8]: 399.5 ± 0.63 Å²

Sequence: TGGTQTDLFTCGKCK [_TGGTQTDLFTCGK(hydroxyisobutyryl)CK_]
- collision cross section [17]: 448.92 Å²

Sequence: DFDTALKHYDK [_DFDTALK(Acetyl (K))HYDK_]
- collision cross section [25]: 401.2 ± 2 Å²
- collision cross section [26]: 463.37 ± 2.2 Å²

Sequence: YEQEHAAIQDKLFQVAK [_YEQEHAAIQDK(Formyl)LFQVAK_]
- collision cross section [29]: 510.23 ± 1.3 Å²

Sequence: GEVQVSDKER [_GEVQVSDK(hydroxyisobutyryl)ER_]
- collision cross section [17]: 366.78 ± 0.27 Å²

Sequence: AGQKLIDVNHYAK [_AGQK(Formyl)LIDVNHYAK_]
- collision cross section (charge state: 2, modification: Formyl): 428.61 ± 0.79 Å²
- collision cross section [29]: 474.19 ± 2.1 Å²

Sequence: SLEEEGAAHSGKR [_SLEEEGAAHSGK(Malonyl)R_]
- collision cross section [3]: 414.03 ± 1.2 Å²

Sequence: LGGDLGTYVINK [_LGGDLGTY(Phospho (Y))VINK_]
- collision cross section [14]: 375.25 ± 0.063 Å²

Sequence: GGGFGAHGRGR [_GGGFGAHGR(Citrullination (R))GR_]
- collision cross section [5]: 343.86 ± 0.28 Å²
- collision cross section [6]: 412.59 ± 0.45 Å²

Sequence: STGLELETPSLVPVKK [_STGLELETPSLVPVK(Acetyl (K))K_]
- collision cross section [25]: 431.84 ± 2.2 Å²
- collision cross section [26]: 518.73 ± 1.1 Å²

Sequence: VFSIISSEKELK [_VFSIISSEK(Methyl (K))ELK_]
- collision cross section [15]: 411.54 ± 0.9 Å²
- collision cross section [16]: 489.57 ± 1.9 Å²

Sequence: SPSDSGYSYETIGKTTK [_SPSDSGYSYETIGK(Trimethyl (K))TTK_]
- collision cross section [22]: 455.09 ± 0.58 Å²
- collision cross section [23]: 517.28 ± 2.4 Å²

Sequence: STNVTVAAARGIK [_STNVTVAAAR(Citrullination (R))GIK_]
- collision cross section [5]: 395.23 ± 1.3 Å²
- collision cross section [6]: 471.03 Å²

Sequence: VGIDTPDIDIHGPEGKLK [_VGIDTPDIDIHGPEGK(Gluratylation)LK_]
- collision cross section (charge state: 2, modification: Glutarylation): 497.76 ± 0.79 Å²
- collision cross section (charge state: 3, modification: Glutarylation): 542.69 ± 1.1 Å²
